# Measurements from PMC6315561.
# Legend:
# [1] = molecular target: ΔRBP1_(Phi4.2) baseplate complex (Dit, Tal, RBP2) (Lactococcus phage Phi4.2); experiment: negative stain electron microscopy; purified baseplate complexes at 0.03 mg/mL on carbon-coated grids, Ca2+ in the protein buffer; baseplate to back-to-back dimer of baseplates
# [2] = molecular target: Full baseplate complex of phage Phi4.2 (Dit, Tal, RBP1, RBP2) (Lactococcus phage Phi4.2); experiment: as above
Substance,stoichiometry N [1],stoichiometry N [2]
"ΔRBP1_(Phi4.2) baseplate complex (Dit, Tal, RBP2)",2,–
"Full baseplate complex of phage Phi4.2 (Dit, Tal, RBP1, RBP2)",–,2
